Experimental data taken from US20250289897A1 (Eli Lilly, published 2025).
Values belong to the binder of their own block, whether it stands above or below them.

What was measured:
[1] = biological target: T1, human FcγRIIb (CD32b) extracellular domain (human, UniProt P31994 43-217); experiment: SPR at 25 C (Biacore T200), antibody captured on Protein A chip, FcγR ECD as analyte, steady state; average of 3, SD 0.17
T1 construct: extracellular domain
T1 sequence (looked up): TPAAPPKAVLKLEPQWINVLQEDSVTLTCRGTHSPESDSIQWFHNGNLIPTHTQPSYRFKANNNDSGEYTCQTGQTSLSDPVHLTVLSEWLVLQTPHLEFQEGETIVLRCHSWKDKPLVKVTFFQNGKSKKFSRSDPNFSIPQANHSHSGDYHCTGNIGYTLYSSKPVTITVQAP
Procedure: (§1) Briefly, the surfaces of all 4 flow cells were activated by injecting a 1:1 mixture of EDC/NHS for 7 minutes at 10 μL/minute. […] Un-reacted sites were blocked with a 7-minute injection of ethanolamine at 10 μL/minute. Injections of 2×10 μL of glycine pH 1.5 were used to remove any noncovalently associated protein.
(§2) For FcγRIIa, FcγRIIb, and FcγRIIIa binding, antibodies were diluted to 5 μg/mL in running buffer, and approximately 500 RU is captured in flow cells 2 through 4 (RUcaptured). FC1 is the reference flow cell. […] Duplicate injections of each concentration were injected over all FCs at 40 L/minute for 60 seconds followed by a 120 second dissociation phase. Regeneration was performed by injecting 15μL of 10 mM glycine pH 1.5 at 30 μL/minute over all FCs.
(§3) Reference-subtracted data was collected as FC2-FC1, FC3-FC1, and FC4-FC1. The measurements were obtained at 25° C. The affinity (KD) was calculated using the steady state equilibrium analysis with the Scrubber 2 Biacore® Evaluation Software.

[2] = biological target: T2, human FcγRI (CD64) extracellular domain (human, UniProt P12314 16-292); experiment: SPR at 25 C (Biacore T200), antibody captured on Protein A chip, FcγR ECD as analyte; average of 3, SD 0.4
T2 construct: extracellular domain; also called FcγRI ECD
T2 sequence (P12314 16-292): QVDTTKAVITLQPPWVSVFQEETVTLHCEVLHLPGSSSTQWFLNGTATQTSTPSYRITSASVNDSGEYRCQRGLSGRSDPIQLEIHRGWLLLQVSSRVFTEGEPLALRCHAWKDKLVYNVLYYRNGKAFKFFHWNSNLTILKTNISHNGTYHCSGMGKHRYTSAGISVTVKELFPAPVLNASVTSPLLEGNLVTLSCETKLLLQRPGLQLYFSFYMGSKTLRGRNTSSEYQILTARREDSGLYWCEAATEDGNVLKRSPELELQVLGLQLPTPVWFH
Procedure: as §1
For FcγRI binding, antibodies were diluted to 2.5 g/mL in running buffer (1x HBS-EP+, Teknova P/N H8022), and approximately 150 RU of each antibody was captured in flow cells 2 through 4 (RUcaptured). FC1 was the reference flow cell, therefore, no antibody was captured in FC1. […] Duplicate injections of each concentration were injected over all FCs at 40 μL/minute for 120 seconds followed by a 1200 second dissociation phase. Regeneration was performed by injecting 15 μL of 10 mM glycine pH 1.5 at 30 μL/minute over all FCs. Reference-subtracted data was collected as FC2-FC1, FC3-FC1, and FC4-FC1. The measurements were obtained at 25° C. The affinity (KD) was calculated using either steady state equilibrium analysis with the Scrubber 2 Biacore® Evaluation Software or a “1:1 (Langmuir) binding” model in BIA Evaluation.

[3] = biological target: T3, neonatal Fc receptor (FcRn) on FcRn Affinity Column Gen2 (Roche, Cat #09430857001) (UniProt P55899 24-297; P61769 21-119, limits assumed); experiment: FcRn-HPLC (Roche FcRn Affinity Column Gen2), peak width at 50% peak height
Procedure: (§4) Stock antibody solutions were diluted to 1 mg/mL into 20 mM MES, 140 mM NaCl, pH5.5. […] 20 μμL antibody injections were made followed by 10 minute column wash with 20 mM MES, 140 mM NaCl, pH5.5. Antibodies were then eluted by pH gradient elution into 20 mM Tris, 140 mM NaCl, pH8.8 over 90 minutes. Chromatograms were blank-subtracted to remove baseline drift.

[4] = biological target: T3, neonatal Fc receptor (FcRn) on FcRn …; experiment: FcRn-HPLC (Roche FcRn Affinity Column Gen2), pH gradient 5.5 to 8.8 over 90 minutes
Procedure: as §4

[5] = biological target: T4, Human C1q (MS Biomedical) (human, UniProt P02745 23-245; P02746 28-253; P02747 29-245); experiment: C1q ELISA, plate coated with the antibody at 0.19-10 ug/mL, human C1q added at 10 ug/mL, sheep anti-human C1q-HRP detection, OD450
T4 construct: the three subunits are from general knowledge; also called complement component C1q; Clq
T4 sequence (P02745 23-245 limits assumed, chain 1 of 3): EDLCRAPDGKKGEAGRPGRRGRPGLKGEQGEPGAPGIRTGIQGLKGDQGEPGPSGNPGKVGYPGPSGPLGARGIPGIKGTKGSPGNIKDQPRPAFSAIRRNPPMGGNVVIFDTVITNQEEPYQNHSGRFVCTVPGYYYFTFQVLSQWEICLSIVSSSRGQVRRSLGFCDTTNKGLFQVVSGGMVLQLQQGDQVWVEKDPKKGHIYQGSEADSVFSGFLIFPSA
T4 sequence (P02746 28-253 limits assumed, chain 2 of 3): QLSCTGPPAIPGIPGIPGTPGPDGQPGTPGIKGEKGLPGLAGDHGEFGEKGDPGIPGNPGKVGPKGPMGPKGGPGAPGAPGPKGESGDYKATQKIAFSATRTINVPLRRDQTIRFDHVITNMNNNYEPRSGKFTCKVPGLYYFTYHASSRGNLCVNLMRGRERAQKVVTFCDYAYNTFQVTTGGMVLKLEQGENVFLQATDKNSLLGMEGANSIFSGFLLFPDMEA
T4 sequence (P02747 29-245 limits assumed, chain 3 of 3): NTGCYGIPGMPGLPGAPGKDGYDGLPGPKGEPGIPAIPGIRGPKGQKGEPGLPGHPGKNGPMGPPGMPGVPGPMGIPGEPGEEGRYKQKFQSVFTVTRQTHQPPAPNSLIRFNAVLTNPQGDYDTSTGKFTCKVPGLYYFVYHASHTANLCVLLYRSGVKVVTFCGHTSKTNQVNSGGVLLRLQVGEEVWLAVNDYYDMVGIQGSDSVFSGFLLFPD
Procedure: Testing was performed in duplicate wells. The plate was sealed and incubated overnight at 4° C. The coating reagent was removed from each well and 200 μL/well of casein blocking reagent (Thermo) was added. The plate was sealed and incubated for 2 hours at room temperature (RT). Each well was washed 3 times with wash buffer (1xTBE with 0.05% Tween 20). One hundred microliters per well of Human Clq (MS Biomedical) at 10 μg/mL diluted in casein blocking reagent was added and incubated for 3 hours at RT. The plate was then washed three times with wash buffer before 100 L/well of a 1:800 dilution of Sheep anti-human C1q-HRP (Abcam #ab46191) in casein blocker was added and incubated for 1 hour at RT. The plate was washed 6 times with wash buffer, and 100 μL/well of TMB Substrate (Pierce) was added to each well and incubated for 7 minutes. One hundred microliters of 1 N HCl was added to each well to stop the reaction.

[6] = biological target: T5, human FcγRIIIA_158F (CD16a) extracellular domain (human, UniProt P08637 17-208); experiment: SPR at 25 C (Biacore T200), antibody captured on Protein A chip, FcγR ECD as analyte, steady state; average of 3, SD 0.03
T5 construct: extracellular domain
T5 sequence (P08637 17-208): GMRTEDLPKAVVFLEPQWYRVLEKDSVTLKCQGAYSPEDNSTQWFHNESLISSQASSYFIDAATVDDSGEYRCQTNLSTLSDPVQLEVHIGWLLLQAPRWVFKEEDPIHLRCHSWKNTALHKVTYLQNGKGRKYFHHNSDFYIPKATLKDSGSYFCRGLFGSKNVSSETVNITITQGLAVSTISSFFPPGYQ
Procedure: as §1, §2, §3

[7] = biological target: T6, Recombinant LEPR extracellular domain fused to hIgG1-Fc (human LEPR ECD-TEV-Fc) (human); experiment: ELISA, plate coated with human LEPR ECD (SEQ ID NO:30) at 2 ug/mL, antibody titrated 1:3 from 50 ug/mL, goat anti-human kappa AP detection, OD560
T6 construct: The entry holds ECD, TEV site, human IgG1 Fc and a His tag in one chain; also called LEPR-Fc; hLEPR-TEV-hIgG1Fc
T6 sequence (chain, as listed by the source limits assumed): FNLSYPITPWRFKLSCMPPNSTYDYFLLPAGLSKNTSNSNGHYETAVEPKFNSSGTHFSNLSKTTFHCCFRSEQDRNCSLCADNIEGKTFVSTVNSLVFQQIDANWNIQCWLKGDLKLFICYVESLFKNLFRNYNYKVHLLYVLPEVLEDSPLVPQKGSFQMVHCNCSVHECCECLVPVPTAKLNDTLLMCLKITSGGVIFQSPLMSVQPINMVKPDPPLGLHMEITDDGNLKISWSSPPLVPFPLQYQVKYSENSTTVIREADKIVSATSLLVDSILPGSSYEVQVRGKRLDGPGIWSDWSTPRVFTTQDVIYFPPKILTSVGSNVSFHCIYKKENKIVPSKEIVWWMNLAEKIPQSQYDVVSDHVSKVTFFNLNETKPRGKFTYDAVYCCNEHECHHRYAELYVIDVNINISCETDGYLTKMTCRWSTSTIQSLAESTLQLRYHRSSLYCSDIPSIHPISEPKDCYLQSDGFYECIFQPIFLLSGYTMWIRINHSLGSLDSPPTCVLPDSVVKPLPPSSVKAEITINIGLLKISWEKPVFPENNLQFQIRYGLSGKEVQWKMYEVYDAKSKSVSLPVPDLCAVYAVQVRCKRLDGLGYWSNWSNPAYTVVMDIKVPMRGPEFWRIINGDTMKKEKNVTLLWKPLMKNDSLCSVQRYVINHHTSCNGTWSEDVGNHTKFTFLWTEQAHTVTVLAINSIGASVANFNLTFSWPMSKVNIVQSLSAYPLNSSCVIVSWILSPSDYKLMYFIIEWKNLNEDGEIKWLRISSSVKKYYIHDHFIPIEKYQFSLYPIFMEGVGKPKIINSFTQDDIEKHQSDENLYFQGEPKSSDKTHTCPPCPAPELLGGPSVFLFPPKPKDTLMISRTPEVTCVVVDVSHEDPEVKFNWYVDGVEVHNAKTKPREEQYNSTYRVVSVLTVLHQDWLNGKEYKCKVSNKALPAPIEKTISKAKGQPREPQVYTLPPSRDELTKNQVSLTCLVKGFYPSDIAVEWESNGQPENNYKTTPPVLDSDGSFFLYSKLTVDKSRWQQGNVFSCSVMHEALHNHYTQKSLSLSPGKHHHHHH
Procedure: The plate was then washed. Antibodies were titrated, starting at 50 μg/mL in Casein with 1:3 serial dilutions across the plate. Plate was incubated at RT for 1 hr. The plate is then washed.
The mixture was incubated at RT for 1 hr. The plate is then washed.
The curves indicate relative binding of IgG antibodies to human LEPR. The LEPR is bound to an ELISA plate and the antibodies are titrated in 3-fold increments starting at 50 μg/mL.

B2: Antibody A IgG4PAA-YTE (antibody)
heavy: EVQLLESGGGLVQPGGSLRLSCAASGFTFSSFAMSWVRQAPGKGLEWVSAISGSGGSTYSADSVRGRFTISRDNSKNTLYLQMNSLRAEDTAVYYCAKDQGDWDFLFDYWGQGTLVTVSSASTKGPSVFPLAPCSRSTSESTAALGCLVKDYFPEPVTVSWNSGALTSGVHTFPAVLQSSGLYSLSSVVTVPSSSLGTKTYTCNVDHKPSNTKVDKRVESKYGPPCPPCPAPEAAGGPSVFLFPPKPKDTLYITREPEVTCVVVDVSQEDPEVQFNWYVDGVEVHNAKTKPREEQFNSTYRVVSVLTVLHQDWLNGKEYKCKVSNKGLPSSIEKTISKAKGQPREPQVYTLPPSQEEMTKNQVSLTCLVKGFYPSDIAVEWESNGQPENNYKTTPPVLDSDGSFFLYSRLTVDKSRWQEGNVFSCSVMHEALHNHYTQKSLSLSLGK
light: DIQMTQSPSFLSASVGDRVTITCRASQGISSSLAWYQQKPGKAPKLLIYTASTLQSGVPSRFSGSGSGTEFTLTISSLQPEDFATYYCQQLIYYPFTFGQGTKVEIKRTVAAPSVFIFPPSDEQLKSGTASVVCLLNNFYPREAKVQWKVDNALQSGNSQESVTEQDSKDSTYSLSSTLTLSKADYEKHKVYACEVTHQGLSSPVTKSFNRGEC
notes: VH and VL matched to Antibody A; Positions are Fc numbering as printed (EU index implied)
Peak Width [3]: 2.7 min | Retention Time [4]: 79.6 min

B3: Antibody A IgG1-YTE (antibody)
heavy: EVQLLESGGGLVQPGGSLRLSCAASGFTFSSFAMSWVRQAPGKGLEWVSAISGSGGSTYSADSVRGRFTISRDNSKNTLYLQMNSLRAEDTAVYYCAKDQGDWDFLFDYWGQGTLVTVSSASTKGPSVFPLAPSSKSTSGGTAALGCLVKDYFPEPVTVSWNSGALTSGVHTFPAVLQSSGLYSLSSVVTVPSSSLGTQTYICNVNHKPSNTKVDKRVEPKSCDKTHTCPPCPAPELLGGPSVFLFPPKPKDTLYITREPEVTCVVVDVSHEDPEVKFNWYVDGVEVHNAKTKPREEQYNSTYRVVSVLTVLHQDWLNGKEYKCKVSNKALPAPIEKTISKAKGQPREPQVYTLPPSREEMTKNQVSLTCLVKGFYPSDIAVEWESNGQPENNYKTTPPVLDSDGSFFLYSKLTVDKSRWQQGNVFSCSVMHEALHNHYTQKSLSLSPGK
light: B2 light
Peak Width [3]: 2.8 min | Retention Time [4]: 80.3 min

Next, values leading:

Kd [1]: 3.61 µM | Kd [2]: 0.0676 nM | Peak Width [3]: 1.7 min | Retention Time [4]: 69.5 min | EC50 (read off the curve) [5]: ~1 µg/mL | Kd [6]: 1560 nM
B1: Antibody A-IgG1 (antibody)
heavy: not shown
light: B2 light
notes: there they lie 3 residues further on); also called Antibody A-IgG1 control; Antibody-A with non-modified IgG1

EC50 (read off the curve) [7]: ~0.07 µg/mL
B4: Antibody D (antibody, human IgG1, kappa, L234A L235A, V domains shown)
VH: EVQLLESGGGLVQPGGSLRLSCAASGFTFSSFAMSWVRQAPGKGLEWVSAISGSGGSTYSADSVRGRFTISRDNSKNTLYLQMNSLRAEDTAVYYCAKDQGDWDFLFDYWGQGTLVTVSS
VL: DIQMTQSPSFLSASVGDRVTITCRASQGISSSLAWYQQKPGKAPKLLIYTASTLQSGVPSRFSGSGSGTEFTLTISSLQPEDFATYYCQQLNYYPFTFGQGTKVEIKR
notes: Same HC as Antibody A
